From article PMC7572642 (Journal of molecular biology, 2020)

Biological target: the molecule itself
Test: crystal structure

B1: chicken cone PDE6 GAFab regulatory domain (residues 42–458 of the chicken cone PDE6C catalytic subunit) (domain or fragment, UniProt P52731 42-458, looked up)
chain: GDVKEGVSFKDMSRLEECNILFELLTEIQDEAGSMEKIVHKTLQRLSQLLAADRCSMFICRSRNGIPEVATRLLNVTPTSKFEDNLVNPDKETVFPLDIGIAGWVAHTKKFFNIPDVKKNNHFSDYLDKKTGYTTVNMMAIPITQGKEVLAVVMALNKLNASEFSKEDEEVFKKYLNFISLVLRNHHTSYLYNIESRRSQMLLWSANKVFEELTDIERQFHKALYTIRMYLNCERYSVGLLDMTKEKEFYDEWPIRLGEAEPYKGPKTPDGREVNFYKIIDYILHGKEEIKVIPTPPADHWCLISGLPTYVAENGFICNMMNAPADEYFTFQKGPVDETGWVIKNVLSLPIVNKKEEIVGVATFYNRKDGKPFDEYDEQIIETLTQFLGWSVLNTDTYDKMNKLENRKDIAQEMLMY
B1: binds.
